Laboratory results as given in publication PMC8199271.

Target: T1, wild-type MBP–CHIP (C-terminus of HSC70-interacting protein, encoded by STUB1) (human), Q9UNE7
T1 chain: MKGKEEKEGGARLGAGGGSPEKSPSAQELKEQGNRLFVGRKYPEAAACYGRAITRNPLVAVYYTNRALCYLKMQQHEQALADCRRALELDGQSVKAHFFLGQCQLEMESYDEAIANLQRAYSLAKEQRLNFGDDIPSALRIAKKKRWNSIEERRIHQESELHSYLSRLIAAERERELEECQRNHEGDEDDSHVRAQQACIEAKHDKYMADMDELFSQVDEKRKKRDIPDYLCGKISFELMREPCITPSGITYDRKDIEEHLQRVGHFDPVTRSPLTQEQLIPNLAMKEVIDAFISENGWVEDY
Test: native gel or EMSA; 5 µg MBP–CHIP in Native Sample Buffer on a 10% gel, 4 °C, 3 h at 140 V, Tris/glycine (25 mM Tris, 192 mM glycine) pH 8.3; Coomassie staining, bands analysed by Fiji (ImageJ); self-association (monomer, dimer, higher-order oligomers)
Settings: remark: other sources report otherwise

stoichiometry N: 2
B1: wild-type MBP–CHIP (C-terminus of HSC70-interacting protein, encoded by STUB1), Q9UNE7-1 1-303 (natural protein)
chain: T1 chain
